Assay results as given in article PMC7553779 (eLife, 2020).

B1: truncated human acid-sensing ion channel 1a with the 60 carboxyl terminal residues removed (hASIC1a^ΔC) (domain or fragment)
chain: MELKAEEEEVGGVQPVSIQAFASSSTLHGLAHIFSYERLSLKRALWALCFLGSLAVLLCVCTERVQYYFHYHHVTKLDEVAASQLTFPAVTLCNLNEFRFSQVSKNDLYHAGELLALLNNRYEIPDTQMADEKQLEILQDKANFRSFKPKPFNMREFYDRAGHDIRDMLLSCHFRGEVCSAEDFKVVFTRYGKCYTFNSGRDGRPRLKTMKGGTGNGLEIMLDIQQDEYLPVWGETDETSFEAGIKVQIHSQDEPPFIDQLGFGVAPGFQTFVACQEQRLIYLPPPWGTCKAVTMDSDLDFFDSYSITACRIDCETRYLVENCNCRMVHMPGDAPYCTPEQYKECADPALDFLVEKDQEYCVCEMPCNLTRYGKELSMVKIPSKASAKYLAKKFNKSEQYIGENILVLDIFFEVLNYETIEQKKAYEIAGLLGDIGGQMGLFIGASILTVLELFDYAYEVIKHKLCRR
notes: Trimer in the cryo-EM structures; […]; also called apo-hASIC1a^ΔC

Key:
[1] = target: the molecule itself; experiment: cryo-EM structure; apo-hASIC1a^ΔC, single-particle cryo-EM, 2.7 mg/ml, 20 mM Tris pH 8.0, 200 mM NaCl, 0.05% DDM, 0.01% CHS; C3 symmetry imposed; 3.56 Å
[2] = target: B1; experiment: cryo-EM structure; hASIC1a^ΔC-Mamba1 complex, toxin added in a 6:1 molar ratio of toxin to channel, 1 hr at 4°C, 20 mM Tris pH 8.0, 200 mM NaCl, 0.05% DDM, 0.01% CHS; 3.1 mg/ml; 3.90 Å; conditions: both partners purified
[3] = target: T1, human acid-sensing ion channel 1a (hASIC1a), full-length, wild type (human, UniProt P78348-2 1-528); experiment: cell-based or functional assay
T1 sequence (looked up): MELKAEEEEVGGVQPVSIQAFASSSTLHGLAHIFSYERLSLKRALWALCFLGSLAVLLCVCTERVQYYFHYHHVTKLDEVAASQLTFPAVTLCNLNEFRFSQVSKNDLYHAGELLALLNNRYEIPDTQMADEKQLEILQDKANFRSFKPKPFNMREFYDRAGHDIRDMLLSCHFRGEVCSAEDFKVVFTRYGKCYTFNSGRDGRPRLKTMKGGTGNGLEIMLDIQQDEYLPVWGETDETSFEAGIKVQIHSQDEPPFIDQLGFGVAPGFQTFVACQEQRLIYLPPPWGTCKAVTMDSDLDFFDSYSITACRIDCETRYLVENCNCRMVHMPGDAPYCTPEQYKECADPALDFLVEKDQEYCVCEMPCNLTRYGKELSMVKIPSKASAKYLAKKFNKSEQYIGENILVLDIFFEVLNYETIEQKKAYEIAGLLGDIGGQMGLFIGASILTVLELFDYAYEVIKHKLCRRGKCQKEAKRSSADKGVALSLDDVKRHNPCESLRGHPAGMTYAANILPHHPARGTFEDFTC

[4] = target: T2, chicken acid-sensing ion channel 1 (cASIC1), full-length (chicken, UniProt Q1XA76 1-527); experiment: cell-based or functional assay
T2 sequence (looked up): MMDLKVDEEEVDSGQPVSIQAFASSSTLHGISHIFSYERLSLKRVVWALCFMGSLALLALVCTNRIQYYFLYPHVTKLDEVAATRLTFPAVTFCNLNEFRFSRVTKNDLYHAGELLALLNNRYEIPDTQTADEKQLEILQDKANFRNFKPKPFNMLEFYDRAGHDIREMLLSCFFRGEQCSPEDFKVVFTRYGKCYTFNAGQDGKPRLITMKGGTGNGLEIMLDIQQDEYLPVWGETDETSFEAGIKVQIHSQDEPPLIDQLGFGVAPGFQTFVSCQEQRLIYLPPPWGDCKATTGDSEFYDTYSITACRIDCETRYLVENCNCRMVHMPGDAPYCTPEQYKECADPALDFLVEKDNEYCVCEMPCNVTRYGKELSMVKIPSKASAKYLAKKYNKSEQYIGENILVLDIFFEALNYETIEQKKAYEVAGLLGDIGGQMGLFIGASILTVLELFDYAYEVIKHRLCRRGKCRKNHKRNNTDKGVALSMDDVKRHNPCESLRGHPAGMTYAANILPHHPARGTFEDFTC

Q: How did the “stoichiometry N” value [1] turn out when B1 was run?
A: The value was 3.

B2: Mambalgin1 (Mamba1) (peptide)
chain: LKCYQHGKVVTCHRDMKFCYHNTGMPFRNLKLILQGCSSSCSETENNKCCSTDRCNK
notes: also called wild-type Mamba1
Q: Which results are given for B2?
A: stoichiometry N [2]: 1 Mamba1 per hASIC1a^ΔC subunit; IC50 of inhibition of acid-evoked (pH 6.0) currents, whole-cell patch clamp, full-length hASIC1a in CHO cells [3]: 197 nM; IC50 of inhibition of full-length hASIC1a in CHO cells ('the reported IC50', Figure 1b) [3]: 149 nM; IC50 of inhibition of acid-evoked (pH 6.0) currents, whole-cell patch clamp, full-length cASIC1 in CHO cells [4]: 124 nM
